Series [1] concerns the target T1, RBcel1 (uncultured bacterium, UniProt Z9EI17H729, E135Q).
T1 construct: 321 residues
T1 sequence (Z9EI17H729 1-321 E135Q): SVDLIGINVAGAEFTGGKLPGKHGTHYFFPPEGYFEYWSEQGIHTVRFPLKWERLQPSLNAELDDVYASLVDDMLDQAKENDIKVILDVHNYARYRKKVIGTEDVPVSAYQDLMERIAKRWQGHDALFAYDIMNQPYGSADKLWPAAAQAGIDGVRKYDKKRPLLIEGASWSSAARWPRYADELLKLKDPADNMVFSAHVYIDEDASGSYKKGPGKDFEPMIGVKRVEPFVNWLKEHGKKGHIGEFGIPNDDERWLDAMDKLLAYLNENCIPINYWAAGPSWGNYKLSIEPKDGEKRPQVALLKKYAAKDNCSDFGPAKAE
As to the kind of experiment: X-ray crystal structure, […] Å. Particulars: co-crystal with 1 mM G3, pH 7.4; subsites +1 to +3 (monomer A) and -4 to -2 (monomer B). The format is binding.

Series [2] has as its target T2, RBcel1 (uncultured bacterium, UniProt Z9EI17H729, Y201F).
T2 sequence (Z9EI17H729 1-321 Y201F): T1 sequence (Z9EI17H729 1-321 E135Q) with Q135E, Y201F
As to the kind of experiment: X-ray crystal structure, […] Å. Particulars: co-crystal with 1 mM G3, pH 7; covalent to Glu245 (monomer D, occupancy 0.13); also +1 to +3 subsites (monomer C).

Substrate in series [3]: O=[N+]([O-])c1ccc(O[C@@H]2O[C@H](CO)[C@@H](O[C@@H]3O[C@H](CO)[C@@H](O[C@@H]4O[C@H](CO)[C@@H](O)[C@H](O)[C@H]4O)[C@H](O)[C@H]3O)[C@H](O)[C@H]2O)c(Cl)c1
The experiment in a line: purified protein. The format is biochemical, uncultured bacterium. Particulars: 20 mM sodium phosphate pH 6.5, 37°C.

Substrate in series [4]: O=[N+]([O-])c1ccc(O[C@@H]2O[C@H](CO)[C@@H](O[C@@H]3O[C@H](CO)[C@@H](O[C@@H]4O[C@H](CO)[C@@H](O[C@@H]5O[C@H](CO)[C@@H](O)[C@H](O)[C@H]5O)[C@H](O)[C@H]4O)[C@H](O)[C@H]3O)[C@H](O)[C@H]2O)c(Cl)c1
As to the kind of experiment: purified protein. Particulars: 20 mM sodium phosphate pH 6.5, 37°C, apparent parameters, text b31 prints µM, table mM (agrees with kcat/Km). The format is biochemical, uncultured bacterium.

Substrate in series [5]: O=[N+]([O-])c1ccc(O[C@@H]2O[C@H](CO)[C@@H](O[C@@H]3O[C@H](CO)[C@@H](O[C@@H]4O[C@H](CO)[C@@H](O[C@@H]5O[C@H](CO)[C@@H](O[C@@H]6O[C@H](CO)[C@@H](O)[C@H](O)[C@H]6O)[C@H](O)[C@H]5O)[C@H](O)[C@H]4O)[C@H](O)[C@H]3O)[C@H](O)[C@H]2O)c(Cl)c1
The experiment in a line: purified protein. The format is biochemical, uncultured bacterium. Particulars: 20 mM sodium phosphate pH 6.5, 37°C, apparent parameters, printed kcat disagrees with printed kcat/Km (tenfold).

Setting [6] is: 36 µM enzyme, methods name the substrate ClPNP β-G1, results ClPNP β-G3.
[7] abbreviates: 22 µM enzyme, methods name the substrate ClPNP β-G1, results ClPNP β-G3.
[8] abbreviates: apparent parameters, text b31 prints µM, table mM (agrees with kcat/Km).

Changes are numbered by the printed parent chain. Names and notes keep the numbering of the source.

For `OC[C@H]1O[C@@H](O[C@H]2[C@H](O)[C@@H](O)[C@H](O[C@H]3[C@H](O)[C@@H](O)C(O)O[C@@H]3CO)O[C@@H]2CO)[C@H](O)[C@@H](O)[C@@H]1O` (stereo partly shown) [G3, cellotriose], in series [1], the “X-ray crystal structure, 1.73 Å” value is reported as “each in complex with a differently positioned G3 molecule”. The “X-ray crystal structure, 1.75 Å” value in series [2] was “G3 and G4 were placed in the negative subsites”.

B1: RBcel1 (uncultured bacterium; E135Q) (protein)
chain: T1 sequence (Z9EI17H729 1-321 E135Q)
notes: 321 residues
For B1, in series [3] (setting [6]), the Michaelis-Menten constant (Km) was 263 ± 41 µM and the kcat is given as 0.219 ± 0.009 × 10^-3 min^-1.

B2: RBcel1 (uncultured bacterium; Y201F) (protein)
chain: T1 sequence (Z9EI17H729 1-321 E135Q) with Q135E, Y201F
notes: 321 residues
For B2, in series [3] (setting [7]), the Michaelis constant (Km) is 77 ± 10 µM and the kcat is given as 0.194 ± 0.023 × 10^-3 min^-1.

B3: RBcel1 (uncultured bacterium) (protein)
chain: T1 sequence (Z9EI17H729 1-321 E135Q) with Q135E
notes: 321 residues
In the case of B3, the results for the Michaelis-Menten constant (Km) in series [4], in series [3] (setting [8]) and in series [5] were 300 ± 30 µM, 2370 ± 260 µM and 340 ± 50 µM, respectively. Further, the kcat amounted to 0.58 ± 0.01 s⁻¹ in series [4] and 0.52 ± 0.02 s⁻¹ in series [3] (setting [8]). Moreover, the catalytic efficiency (kcat/Km) is 1880 ± 190 M⁻¹ s⁻¹ in series [4] and 220 ± 20 M⁻¹ s⁻¹ in series [3] (setting [8]).

Values taken from publication PMC8900817, “Highlighting the factors governing transglycosylation in the GH5_5 endo-1,4-β-glucanase RBcel1” (Acta Crystallographica. Section D, Structural Biology, 2022).
